Read-outs that look alike come from different tables or passages of the source.
B2: SwHaCE (H-NOX-associated cyclic-di-GMP processing enzyme from Shewanella woodyi, diguanylate cyclase/phosphodiesterase) (enzyme, UniProt B1KIH5 1-637, looked up)
chain: MSALEDREQVFLRRIDREKRARQQAEQILNEKSKELWNTNQKLQQINEQLDQMVKTRTSELEIAKTNAELESLAHKNAKERFQLAMRATSAGVWERNIDEDAWYFSDRLIALFGYSREELLFGFKNLSFIHNEDKKPLLHVLKNHFRNGKAFDFECRVLTSEGRYKWFWIVGQAVWNDKGEVVRIAGSFSDIDERVENSKLVEKMAHYDHLTMVPNRVLYNQKLDIALSLADKEQSHLAVILIDLNDFKQVNDTLGHSAGDHLLQHIANQFKLNISESDIVARLGGDEFSIVLTNIANRQAVVTKCEQVLEIISRPFYYQKNLIIPKISMGIALYPEYGMTRDELMVNADLAMYKAKGEKHMGSGFQFCEQEHINKNMERTELSSELCEAITENEFFMHFQPIIDLSNGEVTFAEALIRWKHTNKGVLLPEKFISIAEDSGLITRLGKLSIELVAKQIDRMMAAKRLQKLTINISPSHFLSQSFMEDLKEILSVYPKMSSFITIEITEVVFLLNMEVAKKTVIELHDMGITISLDDFGTGYSSFKYLQQLPIDVIKLDCSFIAELDIDPSHRNIASTIIELAHSLEIKVIAEGVETNSQLVFLQDHHCDFAQGSYFFKPLSVIDFLHMQRCISLPAK

Key:
[1] = target: B2; assay: AUC
[2] = target: B2; assay: AUC; remark: listed apart in the source
[3] = target: B2; assay: other fluorescence titration
AUC = target: the molecule itself; assay: AUC

B1: SwH-NOX (heme-nitric oxide/oxygen binding protein from Shewanella woodyi), wild type (natural protein, UniProt B1KIH6 1-182, looked up)
chain: MMGMVFTGLMELIEDEFGYETLDTLLESCELQSEGIYTSVGSYDHQELLQLVVKLSEVSSVPVTELVRLFGKKLFVELIEGHPEIANEMKDSFDLLSKIDSFIHVEVYKLYPQAELPKFTCDRLGDNDIRLHYQSKRPFASFAEGLLDGCAEYFKEDFTISRTPETQDSETDVIFNITRAPR
[1]
  stoichiometry N: 1 H-NOX per HaCE (2+2)
[2]
  stoichiometry N: 1 H-NOX per HaCE (2+2)
[3]
  Kd: 2.5 to 3 µM

## B2
AUC
  stoichiometry N: 2

Source: publication PMC3985513 (Biochemistry, 2014)
